Our source for the Kd values is PMC6159521.

In the assay the target is His-DnaNCg (Corynebacterium glutamicum sliding clamp, beta-clamp), purified (Corynebacterium glutamicum). Description: BLI. (In general: Biolayer interferometry detects binding as a change in optical thickness at a sensor tip.)

“EndoMSCg (Corynebacterium glutamicum EndoMS/NucS), wild type, purified untagged protein (enzyme)” displayed a Kd of 185 nM. Substance EndoMSCg D144A mutant protein (enzyme) had a Kd of 182 nM.

As a reminder, the Kd is the concentration at which binding is half-saturated. A high value points to lower affinity.
